# Legend:
# wild type H-Ras = wild type H-Ras (Homo sapiens, UniProt P01112); experiment: Fluorescence anisotropy titration of PI3Kγ with H-Ras; format: binding
# Description: (§1) Mant-nucleotides were synthesised as described previously (Jameson and Eccleston, 1997). N-Ras and H-Ras mutants were loaded with mant-GMPPNP as in (Moore et al., 1993), gel filtered into running buffer (20 mM Tris pH 7.5, 2 mM MgCl2, 1 mM DTT), and frozen at −80° C. The concentration of Ras.mant-GMPPNP was determined by measuring the absorbance of the mant group at […] with ε=5700 M^−1 cm^−1 (Hiratsuka, 1983). For binding assays, the 144-1102 human PI3Kγ was titrated into a 1 μM solution of fill length, unmodified N-Ras.mant-GMPPNP. Data were collected with SLM 8000 S and ISS PC1 spectrofluorimeters, set up in the T-format and L-format, respectively, with prism polarizers. All measurements were taken at 20° C. with a λex of 366 nm. Both emission PMTs were fitted with 399 nm cutoff filters. Five measurements of each data point were obtained and averaged. Data were fitted to the binding equation.
# N-Ras.GDP = N-Ras.GDP (Homo sapiens, UniProt P01111); experiment: Binding of PI3Kγ constructs to N-Ras.GDP
# N-Ras.mant-GMPPNP [1] = target: T1, N-Ras.mant-GMPPNP (Homo sapiens, UniProt P01111); experiment: Fluorescence anisotropy titration of PI3Kγ 144-1102 into N-Ras.mant-GMPPNP; format: binding; settings: fluorescence anisotropy, 20° C., 1 μM N-Ras.mant-GMPPNP
# T1 construct: fluorescence anisotropy of full length, unmodified N-Ras.mant-GMPPNP
# Description: as §1
# Target sequence in this assay (P01111 whole entry): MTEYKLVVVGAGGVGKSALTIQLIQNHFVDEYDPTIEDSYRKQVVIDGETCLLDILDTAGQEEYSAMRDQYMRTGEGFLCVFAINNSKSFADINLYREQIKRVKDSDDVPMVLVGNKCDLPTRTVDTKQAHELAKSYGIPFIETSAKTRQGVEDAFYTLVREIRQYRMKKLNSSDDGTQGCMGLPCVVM
# N-Ras.mant-GMPPNP [2] = target: T1, N-Ras.mant-GMPPNP; experiment: Stopped flow anisotropy, association and dissociation kinetics; format: binding; settings: 20° C.
# Description: A Hi-Tech MX61 instrument (Hi-Tech, Salisbury) set up in the T-format with prism polarizers was used to collect data at 20° C. The mant group was excited at 366 nm and emission monitored through 399 nm cutoff filters. The association kinetics were followed by rapid mixing of PI3Kγ with 1 μM N-Ras.mant-GMPPNP under pseudo first-order conditions (PI3Kγ in large excess). Specifically, equal proportions of N-Ras and PI3Kγ were mixed to a final Ras concentration of 1 μM and final PI3Kγ concentrations of 5 and 10 μM. The dissociation rate was measured by mixing a solution of 1 μM N-Ras.mant-GMPPNP and 5 μM PI3K with 9 μM N-Ras.GMPPNP. Attempts to determine association rates at higher PI3K concentrations were limited by solubility of the protein. Data were fitted to single exponential curves within the Hi-Tech software.
# Target sequence in this assay (P01111 whole entry): as above
# Target sequence in this assay (P48736 144-1102 partner limits assumed): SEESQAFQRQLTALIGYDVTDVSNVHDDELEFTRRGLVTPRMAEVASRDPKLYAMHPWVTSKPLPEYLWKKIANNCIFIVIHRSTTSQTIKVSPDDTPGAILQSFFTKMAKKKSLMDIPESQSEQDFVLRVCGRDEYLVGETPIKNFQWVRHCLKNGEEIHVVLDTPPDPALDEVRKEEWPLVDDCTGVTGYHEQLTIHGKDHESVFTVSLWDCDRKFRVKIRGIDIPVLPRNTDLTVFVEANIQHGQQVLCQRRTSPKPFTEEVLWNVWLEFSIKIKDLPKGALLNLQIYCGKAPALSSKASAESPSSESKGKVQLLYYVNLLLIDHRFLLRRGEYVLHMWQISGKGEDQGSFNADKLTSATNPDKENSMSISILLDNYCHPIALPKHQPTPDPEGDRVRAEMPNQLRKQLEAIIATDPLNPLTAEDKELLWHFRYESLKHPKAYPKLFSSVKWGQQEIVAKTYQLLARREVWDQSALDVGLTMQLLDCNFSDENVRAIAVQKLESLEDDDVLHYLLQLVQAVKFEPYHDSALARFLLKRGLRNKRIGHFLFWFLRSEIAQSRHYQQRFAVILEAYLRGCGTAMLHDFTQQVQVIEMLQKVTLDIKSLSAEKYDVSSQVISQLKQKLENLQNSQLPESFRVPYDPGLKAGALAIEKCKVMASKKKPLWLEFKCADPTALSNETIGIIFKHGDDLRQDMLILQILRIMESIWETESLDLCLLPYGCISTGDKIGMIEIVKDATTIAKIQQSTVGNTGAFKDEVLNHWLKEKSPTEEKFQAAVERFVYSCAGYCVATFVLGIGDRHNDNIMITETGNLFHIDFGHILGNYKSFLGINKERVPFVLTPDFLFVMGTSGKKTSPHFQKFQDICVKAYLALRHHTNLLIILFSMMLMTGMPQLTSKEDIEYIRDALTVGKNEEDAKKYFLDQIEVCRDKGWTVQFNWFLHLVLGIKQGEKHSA
# PI3K = target: T2, PI3K (Homo sapiens, UniProt P48736); experiment: Steady state and kinetic measurements of mant-ATP and mant-ADP binding; settings: FIG. 2C
# T2 construct: a construct containing residues 144-1102 of the human PI3Kγ with a C-terminal His6 tag; His6 (C); made in house; host or cells: Sf9 insect cells (baculovirus, pVL1393)
# Description: Equilibrium binding of mant-ATP to PI3K was measured in a SLM 8000 S spectrofluorimeter with λex=280 nm and […]. This allowed monitoring of energy transfer from tryptophan in the PI3K to mant-ATP. Mant-ATP was titrated into a 1 μM solution of PI3K in running buffer. Each data point represents the average of data collected for 30 seconds with a 1 second integration time. For data collected in the presence of Ras, the solution also contained 6 μM H-ras.GMPPNP. The data were fitted to the binding equation with Kaleidagraph.
# All kinetic data were collected in a Hi-Tech Na61 instrument set up in the single push mode with λex=280 nm and emission monitored with 399 nm cutoff filters. A solution of PI3K was mixed a solution of mant-ATP such that the final PI3K concentration was 1 μM and the ATP concentrations were 2.5, 5. 7.5, 10, 12.5, and 25 μM. The displacement experiment was carried out by mixing 1 μM PI3K and 2 μM mant-ATP with 50 or 200 μM ATP. Curve fits were carried out with the Hi-Tech software and Kaleidagraph. Equilibrium and kinetic data for mant-ADP were collected by the same methods.
# Chain of wild type H-Ras (P01112 whole entry): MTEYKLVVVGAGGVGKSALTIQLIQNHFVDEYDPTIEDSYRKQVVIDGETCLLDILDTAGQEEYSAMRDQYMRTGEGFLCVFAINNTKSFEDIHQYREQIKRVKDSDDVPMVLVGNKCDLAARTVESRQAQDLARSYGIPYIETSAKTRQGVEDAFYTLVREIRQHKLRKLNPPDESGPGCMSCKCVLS
# Chain of wild type H-Ras (P48736 144-1102 partner limits assumed): as the sequence (P48736 144-1102 partner limits assumed) above
# Chain of N-Ras.GDP (P01111 whole entry): as the sequence (P01111 whole entry) above
# T2 sequence (P48736 144-1102): as the sequence (P48736 144-1102 partner limits assumed) above
Kd (wild type H-Ras) [nM],Kd (N-Ras.mant-GMPPNP [1]) [nM],nucleotide release from PI3Kγ (PI3K),Substance,binding to N-Ras.GDP (N-Ras.GDP),observed rate constant of the Ras.PI3K complex (single-exponential fit) (N-Ras.mant-GMPPNP [2]) [s⁻¹]
3200 ± 500,2800 ± 400,,wild type PI3Kγ: residues 144-1102 of human PI3Kγ with a C-terminal His6 tag,"Neither the wild-type protein, the pseudo wild-type (V327A, see methods), nor the V223K mutant exhibit detectable binding",18
,,slower than mant-ATP release,mant-ADP,,

# Reference: patent US20040018957A1, “Crystal structure of a Ras-P13K complex” (priority 2000, published 2004)
